# Reference: patent US20170165337A1 (IMMATICS BIOTECHNOLOGIES, published 2017)
# Target: T1, HLA-A*02:01 (human)
# T1 construct: MHC class I monomer of the UV-ligand exchange assay; also called peptide-receptive MHC molecules; MHC class I
# Assay: UV peptide-exchange ELISA
# Outline: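 Peptide-MHC complexes formed by UV-mediated exchange of a UV-cleavable peptide for the test peptide; exchange yield quantified by β2m ELISA. Diluted 100-fold, captured on streptavidin-coated plates 1 h at 37 °C, detected with HRP anti-β2m and TMB at 450 nm against refolded HLA-A*02:01 monomer standards (15-500 ng/ml).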
row,Binder,peptide exchange yield [%]
1,ALAKPPVVSV,50 to 75
2,ALEDRVWEL,50 to 75
3,QVIPQLQTV,50 to 75
4,SLDLFNCEV,≥ 75
5,ALATHILSL,50 to 75
6,VLAFLVHEL,≥ 75
7,LVYEAPETV,50 to 75
8,ILEEQPMDMLL,50 to 75
9,YLIEPDVELQRI,50 to 75
10,SLITPLQAV,50 to 75
11,LLYNSTDPTL,50 to 75
12,GLAESTGLLAV,50 to 75
13,IILPVEVEV,50 to 75
14,SLYDVSRMYV,≥ 75
15,YLLEEKIASL,50 to 75
16,NLQVTQPTV,50 to 75
17,ALLQKLQQL,50 to 75
18,LLLTKPTEA,50 to 75
19,FILPSSLYL,50 to 75
20,SLASIHVPL,50 to 75
21,TLENGVPCV,50 to 75
22,NLLAHIWAL,50 to 75
23,AVLQAVTAV,50 to 75
24,ELMHGVAGV,50 to 75
25,KLLEEICNL,≥ 75

row,Binder,peptide exchange yield [%]
1,LMADLEGLHL,50 to 75
2,ILEENIPVL,50 to 75
3,YLYQEQYFI,50 to 75
4,FIAPTGHSL,20 to 50
5,AAALIIHHV,50 to 75
6,LLSTLHLLV,50 to 75
7,YMYEKESEL,20 to 50
8,VMIQHVENL,50 to 75
9,ATPMPTPSV,20 to 50
10,ILLNEDDLVTI,50 to 75
11,LLVDVEPKV,50 to 75
12,FIMDDPAGNSYL,50 to 75
13,RLLEFELAQL,50 to 75
14,FIDKFTPPV,≥ 75
15,VVAEELENV,20 to 50
16,FLVEPQEDTRL,50 to 75
17,VLLPQETAEIHL,≥ 75
18,SLYSALQQA,50 to 75
19,VLVQVSPSL,50 to 75
20,YLPYIFPNI,50 to 75
21,ILSQPTPSL,50 to 75
22,LAIVPVNTL,10 to 20
23,VLIKWFPEV,≥ 75
24,VLAFENPQV,50 to 75
25,VIAELPPKV,20 to 50

row,Binder,peptide exchange yield [%]
1,VLMWEIYSL,50 to 75
2,ILYGTQFVL,50 to 75
3,ALVFELHYV,50 to 75
4,VTLEFPQLIRV,50 to 75
5,VLMDGSVKL,≥ 75
6,YLGPVSPSL,50 to 75
7,TIAPVTVAV,≥ 75
8,VLWELAHLPTL,50 to 75
9,LLFPQIEGIKI,50 to 75
10,YMAVTTQEV,≥ 75
11,ALDIMIPMV,50 to 75
12,ALSEKLARL,50 to 75
13,LMKDCEAEV,50 to 75
14,GLWGTVVNI,50 to 75
15,FLWEEKFNSL,≥ 75
16,MLLEHGITL,50 to 75
17,AASPIITLV,50 to 75
18,LLAELPASVHA,50 to 75
19,ALLDQLHTLL,≥ 75
20,ELLEGSEIYL,50 to 75
21,ILQDLTFVHL,50 to 75
22,FLDMTNWNL,≥ 75
23,ILLNPAYDVYL,50 to 75
